Test: melting temperature; melt of duplexes
Settings: sodium 0.0675 M; strand 1 µM

Row | Substance | Tm [°C]
1 | CGACGTGCCACATGTGCTG+CAGCACATACCGCACGTCG ((((((((...((((((((+))))))))...)))))))) | 46.7
2 | CGACGTGCCACATGTGCTG+CAGCACATACGGCACGTCG (((((((((..((((((((+))))))))..))))))))) | 53.4
3 | CGACGTGCCACATGTGCTG+CAGCACATACTGCACGTCG ((((((((...((((((((+))))))))...)))))))) | 47.2
4 | CGACGTGCCACATGTGCTG+CAGCACATAGGGCACGTCG (((((((((..((((((((+))))))))..))))))))) | 54.7
5 | CGACGTGCCACATGTGCTG+CAGCACATAGTGCACGTCG ((((((((...((((((((+))))))))...)))))))) | 46.9
6 | CGACGTGCCACATGTGCTG+CAGCACATATTGCACGTCG ((((((((.(.((((((((+)))))))).).)))))))) | 47.4
7 | CGACGTGCCACATGTGCTG+CAGCACATCCCGCACGTCG ((((((((...((((((((+))))))))...)))))))) | 46.3
8 | CGACGTGCCACATGTGCTG+CAGCACATCGGGCACGTCG (((((((((..((((((((+))))))))..))))))))) | 53.9
9 | CGACGTGCCACATGTGCTG+CAGCACATCTGGCACGTCG ((((((((((.((((((((+)))))))).)))))))))) | 55.2
10 | CGACGTGCCACATGTGCTG+CAGCACATGCAGCACGTCG ((((((((..(((((((((+)))))))))..)))))))) | 53.6
11 | CGACGTGCCACATGTGCTG+CAGCACATGCCGCACGTCG ((((((((..(((((((((+)))))))))..)))))))) | 52
12 | CGACGTGCCACATGTGCTG+CAGCACATGGGGCACGTCG (((((((((.(((((((((+))))))))).))))))))) | 63.6
13 | CGACGTGCCACATGTGCTG+CAGCACATGGTGCACGTCG ((((((((..(((((((((+)))))))))..)))))))) | 53.2
14 | CGACGTGCCACATGTGCTG+CAGCACATTAGGCACGTCG (((((((((..((((((((+))))))))..))))))))) | 54.2
15 | CGACGTGCCACATGTGCTG+CAGCACATTCCGCACGTCG ((((((((...((((((((+))))))))...)))))))) | 47.1
16 | CGACGTGCCACATGTGCTG+CAGCACATTGCGCACGTCG ((((((((...((((((((+))))))))...)))))))) | 50.5
17 | CGACGTGCCACATGTGCTG+CAGCACATTGGGCACGTCG (((((((((..((((((((+))))))))..))))))))) | 55
18 | CGACGTGCCACATGTGCTG+CAGCACATTTCGCACGTCG ((((((((.(.((((((((+)))))))).).)))))))) | 47.3
19 | CGACGTGCCAGATGTGCTG+CAGCACATAATGCACGTCG ((((((((...((((((((+))))))))...)))))))) | 48.5
20 | CGACGTGCCAGATGTGCTG+CAGCACATAGTGCACGTCG ((((((((...((((((((+))))))))...)))))))) | 45.6
21 | CGACGTGCCAGATGTGCTG+CAGCACATATCGCACGTCG ((((((((.(.((((((((+)))))))).).)))))))) | 49.1
22 | CGACGTGCCAGATGTGCTG+CAGCACATATGGCACGTCG ((((((((((.((((((((+)))))))).)))))))))) | 59.9
23 | CGACGTGCCAGATGTGCTG+CAGCACATCAGGCACGTCG (((((((((.(((((((((+))))))))).))))))))) | 59.8
24 | CGACGTGCCAGATGTGCTG+CAGCACATCCGGCACGTCG (((((((((.(((((((((+))))))))).))))))))) | 59.2
25 | CGACGTGCCAGATGTGCTG+CAGCACATCGAGCACGTCG ((((((((..(((((((((+)))))))))..)))))))) | 56.2
26 | CGACGTGCCAGATGTGCTG+CAGCACATCGCGCACGTCG ((((((((..(((((((((+)))))))))..)))))))) | 55.4

Row | Substance | Tm [°C]
27 | CGACGTGCCAGATGTGCTG+CAGCACATCTAGCACGTCG ((((((((.((((((((((+)))))))))).)))))))) | 56.8
28 | CGACGTGCCAGATGTGCTG+CAGCACATCTCGCACGTCG ((((((((.((((((((((+)))))))))).)))))))) | 55.9
29 | CGACGTGCCAGATGTGCTG+CAGCACATCTGGCACGTCG (((((((((((((((((((+))))))))))))))))))) | 66.5
30 | CGACGTGCCAGATGTGCTG+CAGCACATGATGCACGTCG ((((((((...((((((((+))))))))...)))))))) | 49.4
31 | CGACGTGCCAGATGTGCTG+CAGCACATGCAGCACGTCG ((((((((...((((((((+))))))))...)))))))) | 51.2
32 | CGACGTGCCAGATGTGCTG+CAGCACATGCCGCACGTCG ((((((((...((((((((+))))))))...)))))))) | 49.5
33 | CGACGTGCCAGATGTGCTG+CAGCACATGGGGCACGTCG (((((((((..((((((((+))))))))..))))))))) | 56.3
34 | CGACGTGCCAGATGTGCTG+CAGCACATGTCGCACGTCG ((((((((.(.((((((((+)))))))).).)))))))) | 49.7
35 | CGACGTGCCAGATGTGCTG+CAGCACATGTGGCACGTCG ((((((((((.((((((((+)))))))).)))))))))) | 60
36 | CGACGTGCCAGATGTGCTG+CAGCACATTTGGCACGTCG ((((((((((.((((((((+)))))))).)))))))))) | 59.3
37 | CGACGTGCCATATGTGCTG+CAGCACATAACGCACGTCG ((((((((..(((((((((+)))))))))..)))))))) | 49.1
38 | CGACGTGCCATATGTGCTG+CAGCACATAAGGCACGTCG (((((((((.(((((((((+))))))))).))))))))) | 56.9
39 | CGACGTGCCATATGTGCTG+CAGCACATACAGCACGTCG ((((((((..(((((((((+)))))))))..)))))))) | 49.9
40 | CGACGTGCCATATGTGCTG+CAGCACATACCGCACGTCG ((((((((..(((((((((+)))))))))..)))))))) | 48.3
41 | CGACGTGCCATATGTGCTG+CAGCACATACTGCACGTCG ((((((((..(((((((((+)))))))))..)))))))) | 49.3
42 | CGACGTGCCATATGTGCTG+CAGCACATATGGCACGTCG (((((((((((((((((((+))))))))))))))))))) | 63
43 | CGACGTGCCATATGTGCTG+CAGCACATCAAGCACGTCG ((((((((...((((((((+))))))))...)))))))) | 48.6
44 | CGACGTGCCATATGTGCTG+CAGCACATCACGCACGTCG ((((((((...((((((((+))))))))...)))))))) | 47.6
45 | CGACGTGCCATATGTGCTG+CAGCACATCAGGCACGTCG (((((((((..((((((((+))))))))..))))))))) | 53.5
46 | CGACGTGCCATATGTGCTG+CAGCACATCCCGCACGTCG ((((((((...((((((((+))))))))...)))))))) | 46.9
47 | CGACGTGCCATATGTGCTG+CAGCACATCCGGCACGTCG (((((((((..((((((((+))))))))..))))))))) | 52.8
48 | CGACGTGCCATATGTGCTG+CAGCACATCTCGCACGTCG ((((((((.(.((((((((+)))))))).).)))))))) | 47.7
49 | CGACGTGCCATATGTGCTG+CAGCACATGACGCACGTCG ((((((((...((((((((+))))))))...)))))))) | 45.5
50 | CGACGTGCCATATGTGCTG+CAGCACATGAGGCACGTCG (((((((((..((((((((+))))))))..))))))))) | 56.2
51 | CGACGTGCCATATGTGCTG+CAGCACATGCGGCACGTCG (((((((((..((((((((+))))))))..))))))))) | 54.1
52 | CGACGTGCCATATGTGCTG+CAGCACATGCTGCACGTCG ((((((((...((((((((+))))))))...)))))))) | 46.7
